The results in this text go back to the supplement of paper PMC5998384.

The subject of series [1] is HeLa Kyoto. Kind of series: solubility change mitosis vs G1/S (difference of NP-40 vs SDS log2 ratios) (log2 ratio difference); higher = more soluble in mitosis.
Series [2] has as its system HeLa Kyoto. Kind of series: solubility in G1/S (NP-40 vs SDS abundance) (log2 ratio); higher = more soluble. The following applies: cell cycle stage: G1/S.
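Wherever solubility change mitosis vs G1/S (difference of NP-40 vs SDS log2 ratios) is given: synchronized HeLa Kyoto cells (double thymidine block for G1/S, nocodazole release for mitosis), protein amounts in NP-40 versus SDS lysates quantified by mass spectrometry, three biological replicates.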
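Wherever solubility in G1/S (NP-40 vs SDS abundance) is given: HeLa Kyoto cells arrested at G1/S by double thymidine block, proteins quantified by TMT10plex mass spectrometry in mild NP-40 versus SDS extracts, three biological replicates.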

TAF5L, sequence (chain, as listed by the source): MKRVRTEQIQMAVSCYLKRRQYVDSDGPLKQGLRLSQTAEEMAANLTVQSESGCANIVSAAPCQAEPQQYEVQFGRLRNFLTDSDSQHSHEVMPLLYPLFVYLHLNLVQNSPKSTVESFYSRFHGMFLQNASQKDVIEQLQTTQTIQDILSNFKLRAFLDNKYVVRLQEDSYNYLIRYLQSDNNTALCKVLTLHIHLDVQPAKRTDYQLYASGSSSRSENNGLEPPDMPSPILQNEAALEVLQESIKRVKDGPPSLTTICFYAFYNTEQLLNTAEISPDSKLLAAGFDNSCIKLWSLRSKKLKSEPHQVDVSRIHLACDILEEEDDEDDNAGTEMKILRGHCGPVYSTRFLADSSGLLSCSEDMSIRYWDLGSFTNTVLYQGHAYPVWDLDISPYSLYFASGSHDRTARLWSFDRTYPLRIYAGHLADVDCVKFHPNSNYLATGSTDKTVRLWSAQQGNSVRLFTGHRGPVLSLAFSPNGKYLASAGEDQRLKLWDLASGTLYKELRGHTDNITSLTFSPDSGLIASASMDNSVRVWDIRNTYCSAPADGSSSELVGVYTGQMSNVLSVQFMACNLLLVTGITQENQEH

Turning to “MEKMSRVTTALGGSVLTGRTMHCHLDAPANAISVCRDAAQVVVAGRSIFKIYAIEEEQFVEKLNLRVGRKPSLNLSCADVVWHQMDENLLATAATNGVVVTWNLGRPSRNKQDQLFTEHKRTVNKVCFHPTEAHVLLSGSQDGFMKCFDLRRKDSVSTFSGQSESVRDVQFSIRDYFTFASTFENGNVQLWDIRRPDRCERMFTAHNGPVFCCDWHPEDRGWLATGGRDKMVKVWDMTTHRAKEMHCVQTIASVARVKWRPECRHHLATCSMMVDHNIYVWDVRRPFVPAAMFEEHRDVTTGIAWRHPHDPSFLLSGSKDSSLCQHLFRDASQPVERANPEGLCYGLFGDLAFAAKESLVAAESGRKPYTGDRRHPIFFKRKLDPAEPFAGLASSALSVFETEPGGGGMRWFVDTAERYALAGRPLAELCDHNAKVARELGRNQVAQTWTMLRIIYCSPGLVPTANLNHSVGKGGSCGLPLMNSFNLKDMAPGLGSETRLDRSKGDARSDTVLLDSSATLITNEDNEETEGSDVPADYLLGDVEGEEDELYLLDPEHAHPEDPECVLPQEAFPLRHEIVDTPPGPEHLQDKADSPHVSGSEADVASLAPVDSSFSLLSVSHALYDSRLPPDFFGVLVRDMLHFYAEQGDVQMAVSVLIVLGERVRKDIDEQTQEHWYTSYIDLLQRFRLWNVSNEVVKLSTSRAVSCLNQASTTLHVNCSHCKRPMSSRGWVCDRCHRCASMCAVCHHVVKGLFVWCQGCSHGGHLQHIMKWLEGSSHCPAGCGHLCEYS [WDR24]”, the “solubility change mitosis (log2)” value in the series on HeLa Kyoto [1] is -0.106. In addition, the “solubility in G1/S (log2)” value with HeLa Kyoto [2] is -0.232.

In the case of “MTSAVVDSGGTILELSSNGVENQEESEKVSEYPAVIVEPVPSARLEQGYAAQVLVYDDETYMMQDVAEEQEVETENVETVEASVHSSNAHCTDKTIEAAEALLHMESPTCLRDSRSPVEVFVPPCVSTPEFIHAAMRPDVITETVVEVSTEESEPMDTSPIPTSPDSHEPMKKKKVGRKPKTQQSPISNGSPELGIKKKPREGKGNTTYLWEFLLDLLQDKNTCPRYIKWTQREKGIFKLVDSKAVSKLWGKHKNKPDMNYETMGRALRYYYQRGILAKVEGQRLVYQFKDMPKNIVVIDDDKSETCNEDLAGTTDEKSLERVSLSAESLLKAASSVRSGKNSSPINCSRAEKGVARVVNITSPGHDASSRSPTTTASVSATAAPRTVRVAMQVPVVMTSLGQKISTVAVQSVNAGAPLITSTSPTTATSPKVVIQTIPTVMPASTENGDKITMQPAKIITIPATQLAQCQLQTKSNLTGSGSINIVGTPLAVRALTPVSIAHGTPVMRLSMPTQQASGQTPPRVISAVIKGPEVKSEAVAKKQEHDVKTLQLVEEKPADGNKTVTHVVVVSAPSAIALPVTMKTEGLVTCEK [ELF2]”, in the series with HeLa Kyoto [1], the “solubility change mitosis (log2)” value came to 0.0877. In addition, the “solubility in G1/S (log2)” value in the series with HeLa Kyoto [2] amounted to 0.284.

“MDEPPFSEAALEQALGEPCDLDAALLTDIEDMLQLINNQDSDFPGLFDPPYAGSGAGGTDPASPDTSSPGSLSPPPATLSSSLEAFLSGPQAAPSPLSPPQPAPTPLKMYPSMPAFSPGPGIKEESVPLSILQTPTPQPLPGALLPQSFPAPAPPQFSSTPVLGYPSPPGGFSTGSPPGNTQQPLPGLPLASPPGVPPVSLHTQVQSVVPQQLLTVTAAPTAAPVTTTVTSQIQQVPVLLQPHFIKADSLLLTAMKTDGATVKAAGLSPLVSGTTVQTGPLPTLVSGGTILATVPLVVDAEKLPINRLAAGSKAPASAQSRGEKRTAHNAIEKRYRSSINDKIIELKDLVVGTEAKLNKSAVLRKAIDYIRFLQHSNQKLKQENLSLRTAVHKSKSLKDLVSACGSGGNTDVLMEGVKTEVEDTLTPPPSDAGSPFQSSPLSLGSRGSGSGGSGSDSEPDSPVFEDSKAKPEQRPSLHSRGMLDRSRLALCTLVFLCLSCNPLASLLGARGLPSPSDTTSVYHSPGRNVLGTESRDGPGWAQWLLPPVVWLLNGLLVLVSLVLLFVYGEPVTRPHSGPAVYFWRHRKQADLDLARGDFAQAAQQLWLALRALGRPLPTSHLDLACSLLWNLIRHLLQRLWVGRWLAGRAGGLQQDCALRVDASASARDAALVYHKLHQLHTMGKHTGGHLTATNLALSALNLAECAGDAVSVATLAEIYVAAALRVKTSLPRALHFLTRFFLSSARQACLAQSGSVPPAMQWLCHPVGHRFFVDGDWSVLSTPWESLYSLAGNPVDPLAQVTQLFREHLLERALNCVTQPNPSPGSADGDKEFSDALGYLQLLNSCSDAAGAPAYSFSISSSMATTTGVDPVAKWWASLTAVVIHWLRRDEEAAERLCPLVEHLPRVLQESERPLPRAALHSFKAARALLGCAKAESGPASLTICEKASGYLQDSLATTPASSSIDKAVQLFLCDLLLVVRTSLWRQQQPPAPAPAAQGTSSRPQASALELRGFQRDLSSLRRLAQSFRPAMRRVFLHEATARLMAGASPTRTHQLLDRSLRRRAGPGGKGGAVAELEPRPTRREHAEALLLASCYLPPGFLSAPGQRVGMLAEAARTLEKLGDRRLLHDCQQMLMRLGGGTTVTSS [SREBF1]”: in the series on HeLa Kyoto [1], the “solubility change mitosis (log2)” value was -0.263. In addition, in the series on HeLa Kyoto [2], the “solubility in G1/S (log2)” value is -0.139.

NAV2: the “solubility change mitosis (log2)” value in the series on HeLa Kyoto [1] turned out to be 0.109. Also, the “solubility in G1/S (log2)” value in the series with HeLa Kyoto [2] is -0.147.

TAF5L: the “solubility change mitosis (log2)” value with HeLa Kyoto [1] was -0.0612. Also, the “solubility in G1/S (log2)” value in the series with HeLa Kyoto [2] was -0.145.

With PDCD11, the “solubility change mitosis (log2)” value with HeLa Kyoto [1] came out at 1.53. Besides, the “solubility in G1/S (log2)” value with HeLa Kyoto [2] is -2.88.

Turning to “MGAQDRPQCHFDIEINREPVGRIMFQLFSDICPKTCKNFLCLCSGEKGLGKTTGKKLCYKGSTFHRVVKNFMIQGGDFSEGNGKGGESIYGGYFKDENFILKHDRAFLLSMANRGKHTNGSQFFITTKPAPHLDGVHVVFGLVISGFEVIEQIENLKTDAASRPYADVRVIDCGVLATKSIKDVFEKKRKKPTHSEGSDSSSNSSSSSESSSESELEHERSRRRKHKRRPKVKRSKKRRKEASSSEEPRNKHAMNPKGHSERSDTNEKRSVDSSAKREKPVVRPEEIPPVPENRFLLRRDMPVVTAEPEPKIPDVAPIVSDQKPSVSKSGRKIKGRGTIRYHTPPRSRSCSESDDDDSSETPPHWKEEMQRLRAYRPPSGEKWSKGDKLSDPCSSRWDERSLSQRSRSWSYNGYYSDLSTARHSGHHKKRRKEKKVKHKKKGKKQKHCRRHKQTKKRRILIPSDIESSKSSTRRMKSSCDRERSSRSSSLSSHHSSKRDWSKSDKDVQSSLTHSSRDSYRSKSHSQSYSRGSSRSRTASKSSSHSRSRSKSRSSSKSGHRKRASKSPRKTASQLSENKPVKTEPLRATMAQNENVVVQPVVAENIPVIPLSDSPPPSRWKPGQKPWKPSYERIQEMKAKTTHLLPIQSTYSLANIKETGSSSSYHKREKNSESDQSTYSKYSDRSSESSPRSRSRSSRSRSYSRSYTRSRSLASSHSRSRSPSSRSHSRNKYSDHSQCSRSSSYTSISSDDGRRAKRRLRSSGKKNSVSHKKHSSSSEKTLHSKYVKGRDRSSCVRKYSESRSSLDYSSDSEQSSVQATQSAQEKEKQGQMERTHNKQEKNRGEEKSKSERECPHSKKRTLKENLSDHLRNGSKPKRKNYAGSKWDSESNSERDVTKNSKNDSHPSSDKEEGEATSDSESEVSEIHIKVKPTTKSSTNTSLPDDNGAWKSSKQRTSTSDSEGSCSNSENNRGKPQKHKHGSKENLKREHTKKVKEKLKGKKDKKHKAPKRKQAFHWQPPLEFGEEEEEEIDDKQVTQESKEKKVSENNETIKDNILKTEKSSEEDLSGKHDTVTVSSDLDQFTKDDSKLSISPTALNTEENVACLQNIQHVEESVPNGVEDVLQTDDNMEICTPDRSSPAKVEETSPLGNARLDTPDINIVLKQDMATEHPQAEVVKQESSMSESKVLGEVGKQDSSSASLASAGESTGKKEVAEKSQINLIDKKWKPLQGVGNLAAPNAATSSAVEVKVLTTVPEMKPQGLRIEIKSKNKVRPGSLFDEVRKTARLNRRPRNQESSSDEQTPSRDDDSQSRSPSRSRSKSETKSRHRTRSVSYSHSRSRSRSSTSSYRSRSYSRSRSRGWYSRGRTRSRSSSYRSYKSHRTSSRSRSRSSSYDPHSRSRSYTYDSYYSRSRSRSRSQRSDSYHRGRSYNRRSRSCRSYGSDSESDRSYSHHRSPSESSRYS [NKTR]”, the “solubility change mitosis (log2)” value in the series on HeLa Kyoto [1] was 0.283. For the same substance, the “solubility in G1/S (log2)” value with HeLa Kyoto [2] is -1.34.
